Patent US6020130, “Nucleic acid ligands that bind to and inhibit DNA polymerases” (NeXstar Pharmaceuticals, Inc.)

Tests used:
Taq DNA polymerase [1] = molecular target: T1, Taq DNA polymerase (UniProt P19821 P19821:1-832); assay: inhibition; hairpin extension assay, monomer; conditions: tags: rTaq, 94 kDa, Roche Molecular Systems / Perkin Elmer; stem-loop
Description: (§1) In a typical inhibition assay, a 20 μL reaction contained either 0.25 pmoles of Taq polymerase (5 U) or 0.125 pmoles of Tth polymerase (2.5 U), oligonucleotide inhibitor (at varying concentrations), 10 mM Tris-HCl (pH 8.3), 50 mM KCl, 2.5 mM MgCl_2, and 1 mM each dNTPs. Gel purified, 5'-end-labeled hairpin DNA substrate (DNA-HP; 5'-[…]-3') was then added to a final concentration of 250 nM and the reaction was incubated at 30° C. for 1 hour. The reaction was stopped by adding 5 μL of 0.5 M EDTA (pH 8.0) followed by formamide gel loading buffer. Extension products were resolved on 10% polyacrylamide gels under denaturing conditions. The amount of extension products were quantitated by phosphorimager. The amounts of products formed in the presence of inhibitor was normalized to the product formed in the absence of an inhibitor to obtain the percent of product.

Tth DNA polymerase [2] = molecular target: T2, Tth DNA polymerase (UniProt P52028 P52028:1-834); assay: inhibition; room temperature; IT50 29 C; conditions: tags: rTth, 94 kDa, Roche Molecular Systems / Perkin Elmer
Description: (§2) Since the concentration of Taq polymerase used in the assay is 12.5 nM, enzyme inhibition by TQ30 (SEQ ID NO:50) is likely to be a result of stoichiometric binding.
as §1

Taq DNA polymerase [3] = molecular target: T1, Taq DNA polymerase; assay: inhibition; room temperature 16 h, 12.5 nM Taq; 67 nM at 30 C 1 h; IT50 37 C; conditions: tags: rTaq, 94 kDa, Roche Molecular Systems / Perkin Elmer
Description: as §2, §1

Taq DNA polymerase [4] = molecular target: T1, Taq DNA polymerase; assay: inhibition; hairpin extension assay; IT50 41 C; conditions: tags: rTaq, 94 kDa, Roche Molecular Systems / Perkin Elmer
Description: as §1

Tth DNA polymerase [5] = molecular target: T2, Tth DNA polymerase; assay: inhibition; hairpin extension assay; IT50 34.5 C; conditions: tags: rTth, 94 kDa, Roche Molecular Systems / Perkin Elmer
Description: as §1

Tth DNA polymerase [6] = molecular target: T2, Tth DNA polymerase; assay: inhibition; hairpin extension assay; IT50 35.6 C; conditions: tags: rTth, 94 kDa, Roche Molecular Systems / Perkin Elmer
Description: (§3) Deletion analysis of the full-length TQ21 sequence led to the identification of a 51-mer sequence (Trnc.21 (SEQ ID NO:70) (Table 4)) that retained the ability to inhibit both Taq and Tth polymerases. In addition to the entire 30-nucleotide random region, the Trnc.21 sequence contained 9 and 12 nucleotides from the 5' and 3' fixed regions, respectively (Table 4). […] The calculated $IT50$ values for Taq polymerase and Tth polymerase are 34° C. and 35.6° C., respectively (FIG. 13C). The hairpin extension assays were carried out between the temperatures of 35 and 50° C. for 1 hour with […] Trnc.21. Thus, based on the affinity and the values of $IC50$ and $IT50$, the truncated form of TQ21 is a better inhibitor than the full-length sequence.
as §1, with “conditions.” for “conditions. The amount of extension products were quantitated by phosphorimager. The amounts of products formed in the presence of inhibitor was normalized to the product formed in the absence of an inhibitor to obtain the percent of product.”

Taq DNA polymerase [7] = molecular target: T1, Taq DNA polymerase; assay: inhibition; hairpin extension assay; IT50 34 C; conditions: tags: rTaq, 94 kDa, Roche Molecular Systems / Perkin Elmer
Description: as §3
as §1, with “conditions.” for “conditions. The amount of extension products were quantitated by phosphorimager. The amounts of products formed in the presence of inhibitor was normalized to the product formed in the absence of an inhibitor to obtain the percent of product.”

Taq DNA polymerase [8] = molecular target: T1, Taq DNA polymerase; assay: inhibition; hairpin extension assay; conditions: tags: rTaq, 94 kDa, Roche Molecular Systems / Perkin Elmer; stem-loop dimer
Description: as §1

Taq DNA polymerase [9] = molecular target: T1, Taq DNA polymerase; assay: filter; conditions: tags: rTaq, 94 kDa, Roche Molecular Systems / Perkin Elmer; stem-loop dimer
Description: For isolation of DNA molecules that bind tightly to Taq polymerase and Tth polymerase, respectively, the nitrocellulose filter partitioning method was used as described in the SELEX Patent Applications. Briefly, gel-purified ^32P ss-DNA pools labeled at the 5' end were suspended in the binding buffer, heated to 80° C., chilled on ice and then brought to room temperature. The DNA (5–10 pM) was then incubated for 15 minutes at room temperature with varying amounts of the target polymerase in 50 µL of the appropriate binding buffer containing 0.1 µg of tRNA and 0.01% hSA. The DNA concentrations were kept lower than 100 pM to ensure equilibrium in the presence of excess protein concentrations. After 15 minutes the binding reaction mixtures were passed through pre-wet nitrocellulose/cellulose acetate mixed matrix filters (0.45 µm pore size, Millipore Corporation, Bedford, Mass.) and the filters were immediately washed with 5 mL of binding buffer. The amount of DNA bound to the filters was quantitated by measuring the radioactivity of the filters by liquid scintillation counting. The quantity of DNA bound to filters in the absence of protein was used for background correction. The percentage of input DNA retained on each filter was plotted against the corresponding log of the polymerase concentration (FIGS. 1 and 2). […]

Taq DNA polymerase [10] = molecular target: T1, Taq DNA polymerase; assay: inhibition; room temperature 16 h, 12.5 nM Taq; 22 nM at 30 C 1 h; IT50 41 C; conditions: tags: rTaq, 94 kDa, Roche Molecular Systems / Perkin Elmer
Description: as §2, §1

T2 sequence (P52028 whole entry, one chain of several): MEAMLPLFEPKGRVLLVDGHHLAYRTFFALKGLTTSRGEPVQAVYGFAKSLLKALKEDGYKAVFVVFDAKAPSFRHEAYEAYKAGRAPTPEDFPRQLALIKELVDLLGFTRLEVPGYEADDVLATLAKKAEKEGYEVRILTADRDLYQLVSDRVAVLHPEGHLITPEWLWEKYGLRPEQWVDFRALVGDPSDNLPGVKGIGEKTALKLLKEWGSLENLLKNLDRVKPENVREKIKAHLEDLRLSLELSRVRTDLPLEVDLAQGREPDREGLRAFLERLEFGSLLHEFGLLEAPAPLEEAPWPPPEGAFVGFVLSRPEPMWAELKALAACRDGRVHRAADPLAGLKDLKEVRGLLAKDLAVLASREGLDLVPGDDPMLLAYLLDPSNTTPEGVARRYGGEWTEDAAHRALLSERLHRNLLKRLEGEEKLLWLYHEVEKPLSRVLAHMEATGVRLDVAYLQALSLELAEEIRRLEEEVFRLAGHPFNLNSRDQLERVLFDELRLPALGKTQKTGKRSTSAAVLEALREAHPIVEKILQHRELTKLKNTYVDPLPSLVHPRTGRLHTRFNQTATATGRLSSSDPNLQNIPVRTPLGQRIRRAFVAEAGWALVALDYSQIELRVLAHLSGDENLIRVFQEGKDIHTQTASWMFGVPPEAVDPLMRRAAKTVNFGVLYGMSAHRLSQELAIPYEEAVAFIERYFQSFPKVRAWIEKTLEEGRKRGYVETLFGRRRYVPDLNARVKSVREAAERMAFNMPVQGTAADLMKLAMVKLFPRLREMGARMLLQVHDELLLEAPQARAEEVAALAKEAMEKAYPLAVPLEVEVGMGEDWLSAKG
T1 sequence (P19821 whole entry, one chain of several): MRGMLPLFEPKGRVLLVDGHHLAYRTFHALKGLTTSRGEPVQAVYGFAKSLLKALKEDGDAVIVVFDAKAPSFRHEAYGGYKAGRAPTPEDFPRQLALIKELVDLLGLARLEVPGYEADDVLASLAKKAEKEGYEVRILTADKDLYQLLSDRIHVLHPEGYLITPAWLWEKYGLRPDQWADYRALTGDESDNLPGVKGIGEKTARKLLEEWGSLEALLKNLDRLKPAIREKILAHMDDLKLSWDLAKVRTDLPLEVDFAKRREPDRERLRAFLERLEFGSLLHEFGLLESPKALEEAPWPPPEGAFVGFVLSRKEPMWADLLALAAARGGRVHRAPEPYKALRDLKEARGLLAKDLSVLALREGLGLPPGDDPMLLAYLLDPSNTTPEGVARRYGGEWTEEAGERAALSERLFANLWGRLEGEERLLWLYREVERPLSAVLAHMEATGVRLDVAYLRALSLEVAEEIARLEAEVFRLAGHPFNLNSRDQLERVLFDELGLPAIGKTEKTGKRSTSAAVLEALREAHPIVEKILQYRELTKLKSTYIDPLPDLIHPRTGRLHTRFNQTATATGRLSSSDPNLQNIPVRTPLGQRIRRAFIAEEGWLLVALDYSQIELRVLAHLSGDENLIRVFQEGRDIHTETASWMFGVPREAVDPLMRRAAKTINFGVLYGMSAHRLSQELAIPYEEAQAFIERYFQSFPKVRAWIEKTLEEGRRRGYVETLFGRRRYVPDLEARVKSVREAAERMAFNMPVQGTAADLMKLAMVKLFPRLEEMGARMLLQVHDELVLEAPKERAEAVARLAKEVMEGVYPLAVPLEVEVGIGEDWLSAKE

B1: Trnc.2-30 (ssDNA)
DNA: GCCGGCCAATGTACAGTATTGGCCGGC
- IC50 (Taq DNA polymerase [1]): 48 nM

B2: TQ21 (ssDNA)
DNA: TTCTCGGTTGGTCTCTGGCGGAGCGATCATCTCAGAGCATTCTTAGCGTTTTGTTCTTGTGTATGATTCGCTTTTCCC
- IC50 (Tth DNA polymerase [2]): 36 nM
- IC50 (Taq DNA polymerase [3]): 10 nM

B3: D.21-D.30 heterodimer (ssDNA)
DNA: TGGCGGAGCGATCATCTCAGAGCATTCTTAGCGTTTTGTTCTTGTGTATGATTTGCCGGCCAATGTACAGTATTGGCCGGC
- IC50 (Taq DNA polymerase [4]): ~30 nM
- IC50 (Tth DNA polymerase [5]): ~30 nM

B4: Trnc.21 (ssDNA)
DNA: TGGCGGAGCGATCATCTCAGAGCATTCTTAGCGTTTTGTTCTTGTGTATGA
- IC50 (Tth DNA polymerase [6]): 36.5 nM
- IC50 (Taq DNA polymerase [7]): 21 nM

B5: D.30-D.30 homodimer (ssDNA)
DNA 1: GCCGGCCAATGTACAGTATTGGCCGGC
DNA 2: GCCGGCCAATGTACAGTATTGGCCGGC
modifications: two Trnc.2-30 copies joined with symmetrical 3'-3' branching CPG linker (linker region drawn in figure only)
- IC50 (Taq DNA polymerase [8]): 14 nM
- Kd (Taq DNA polymerase [9]): 0.0475 nM

B6: TQ30 (ssDNA)
DNA: TTCTCGGTTGGTCTCTGGCGGAGCAAGACCAGACAATGTACAGTATTGGCCTGATCTTGTGTATGATTCGCTTTTCCC
- IC50 (Taq DNA polymerase [10]): 6.5 nM
- IC50 (Tth DNA polymerase [2]): 60 nM
